Experimental data published in the NTF2 design screens of Basanta et al. (2020).

Assay: protease stability score; higher = more stable; yeast display proteolysis, trypsin and chymotrypsin;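 note: relative to predicted unfolded state with 0 unfolded-like and 1 meaning tenfold more protease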

Sequence	protease stability score
DERDELVEIVFRLYLRLLTTGDEQEWHHLADPDTRLHIGDKDFHGRENVNKHRRDNLERVKGIKLRDVKITQVHLIDGVLHIDIRLDVEYDGRRTELKVRVISEKVDGKWFIKSIIIE	1.44
DERDELVRQLMEWLVRAYITGDFETLKNLFDPNAKVRVNGRELIGMETFWQLLWHLRFTDHKIDSVEMQGEKVTVNVTLFIDVNGREETKKSHLIFVVVNGRLKSMDFRYE	1.66
DERDEMSRHLVRLWIRLYRTGDWKELYDNLDPNARLIIGDKEYHGREEVVEIFLELAKRFKNVKVEFKEIHFQGDKMTLREEVRQGDWRVEVIIKVEFIDGKLHHVQIIFG	2.75
DERDEMTDHALQRVHEMLLTGDERLLSELFDPNARSQIGDKHVHGRDEVAKTFTEQLEKLGVDHVHFRSVDIQGEKLIIHMHFRVGDKHFQVIIIIVKVNGRWYWTNMHVILH	1.1
DERDEQAEEAMKIWIHSVQTGNEDLLRRLVDPHVRITVGDKEIHGREQFAEYYHRLVTELRIHIHIHRITVINGQVHSHVEIRIQIGDKEISFETRMFILKVDGVWLFKREEVT	0.744
DERDERLTEFLELYFKLWFTGDEDTFAHLADPNTRSVFNGKWIHGMESYSEWVEKHMRHLRFKDMKIRDSRVVDGQIHMNTEVEGEVNGQRYRVETRIILDVIDGRIKEVRLHIH	1.24
DERDESLKNIFELLERILETGDEDDSSKLADPHTRMHWNGKELHGRELYADLFDRLLRELGVDHVRLKIHEVRIQGDKIRMDGTLHLIQGDKEERRRVHLVAHKINGRWHIKQVSIN	1.26
DERDEVLEDTARRVLEWLTTGNWEELAKYADPNVKNDINGRIDHGREEMSRRIREELHKVKNLKFNITYFDIIGDKVHFWGTLHYDGRTMETHIHIEVVDGRLHHMQFEIK	0.983
DERDEYLHEWTRLLIELFETGNFEFLVEMMDPNVQIDIGDKHFIGWELAVHFLEEFLRQFKNARWEITRFRRYDGRIEMDTIMRINGREIKVKIIVIVIDGRVKSRHEEYR	0.595
DERDREVHLASELLHRIVRTGNEEVFEDYLDPNVRVRVNGVESWGMDSFKHWLKEIRIHSHEVDHFDVIGDKLHFDTRVDGEFDGRRDIYKSEVHAEKINGRWIFKIVIFR	1.19
DEREDEVRLATEHVERILQTGDEELFRHFVDPRVRMDYNGKDVHGREVILEWIVKIKNLTVRIDDVEVQGDKMLIRSHWTIGDKQHHLRIIATKINGRWESTSVHIH	1.02
DEREEASERMAELIVHLFETGDEDLIRRMVDPHVRWEFNGREIMGRELTTHVLHEIYHRVKNIRYRIESLDIQGDWLLVNSRLHVNGRTIEIHLIVEKVNGRWTLRELIVKVD	1.65
DEREEDAREAEEIILEDLRTGDWERISRNFDPNVRMHVGDKKYHGREDAIREIKRLMSDMGIKHHSITDSRLQGEWLFLHVEVHFNGRTHDVEIIMIKVNGKWVFKEVRIG	1.99
DEREEEAERILREWIKAVETGDFEQIMRYLDPNVRIIVNGKHHHGREILVHLIIRFLRELGADHITFHHDRIHLYDGVLVIDIHLEIRQGDKRYEFHEEIYIIKVNGRWIVRRVIIR	2.8
DEREEEAERIMRLFQEFERTGDEDMLRHLVDPDARWVVGDKFQHGWHHFHRLLHHLRVRDLKPKSLHIDVQGDKVEVILHQEMDGEINGKRVIYHVVVIIIVNKFNGRWRNETVEVRFH	0.843
DEREEEARKWIELFLRHLLTGDEDSLQELADPHTRNIVGDKDLIGWRFMIKYVRDVRERFDHIEFHITRMEVQGDKVRVDVRIINIVGDKHFEIESHIVTEKINGKWRLKSMELR	1.51
DEREEELHHMLEVLEFAFHTGDFEKLSKMFDPHVRIDVNGQELHGWKHAHEHIEDLFRKVKNIRLEFRDIRFQGDKIDIDGIMIFNGVRHEVKIITVKVNGRWLWRSINIH	2.33
DEREEEMQRIMEDFIRAWSTGDEKRLKELIDPRDRMIINGKERHGMEEWKTLWETLGINYIDIEHVHLQGEKARIHGTSKFNGRHHEVRIEIRVVDGRFTEVHVDII	1.78
DEREEESERWVRLLLHYLLTGDFRRIEELVDPNARSIIGDKRHHGREIVVEWMTRYKNARVEVKDFHIQGDKLQLHVEVQIDGRTFKLDIELYKVNGKWLLRTLHVEEL	1.44
DEREEESKRATEKVTRDIHTGDEDLHRHLLDPNAKLVFNGREFVGREEVEKILKWFLDRAGVDKINMTIHDVRVVDGRIKLDGRNNINGVEYTVIWISEKYNGRWFDRMIIFS	0.493
DEREEFIHIAIHLLIHVDRTGDEDTYRKMMDPTTKLEVNGVKYIGRQEVIKFLRHIRIDSQDIKRWELVGDKVDLDVHVDGDVNGRRVREDRQIHLWKVDGRWVLEKIEYK	0.955
DEREEFVLSMAELWIHAVLTGDEELERQLIDPHARNNINGRTIHGMEMFNKFWIRLLQEIRFEIEIRRFHIQGEKMHFDGVLRLRYDGREEVLRVHVEIVIVDGRLHEVHIKIK	1.33
DEREEHAEEIFRELIHWMETGDEKKMRRYFDPHARLEVGDKEFIGREKISEWMVELRLKDHKERHFDVVNGVAEIHGVMDGIIDGRRHRTEVIIDINIINGKFHRIRIIVK	1.21
DEREEHHEENARLLLEQFKTGNWDFLRSLADPNVQHNWDGRKSHGRESMVRLLIDHIRKVKGMRTEEKEVEFQGDKVILHGRVNINGREIEVIFILEVVDGRIKSLHIDFR	0.697
DEREEIAKHLLDLLMHFSKTGDWKKIEDLFDPNTRIHINGVEHVGMEEIARHISEWRIHSIHIKHLDYQGEFIHMDGELDVEVNGRRHKTRMHIIVVKYNGRWLIHHIEVH	2.03

Sequence	protease stability score
DEREEIIRKALELFIFSMKTGDEHTLTELLDPNVRLLVGDKEFHGREVFHILIQQFKNIRVEHFEHKDWYEQGDKMRITGRLTFRQGDKRTEIDTTLIILKINGRWIMHDIVIS	2.17
DEREELAEHMIRLLTERLITGDERIEQELADPNVRFELDINGKSVDTHGMENVLEWIRKWYEHFGVTNFDLRIHRIRVIGEYAHNDGEIIQGDKTRRVHIRMVVINGRVHEVIIHVR	1.22
DEREELDEHWFRLQFQAMETGDENLVRDNLDPHVKVVVGDKEFVGRHYAIRLFHDLGVDHLVKKSEDRQGEKVIVHGRLDIGDKRHEIVLIIRKIDGKWVVHEIIIR	1.35
DEREELIQRFLEMLIHLYLTGDEDWFLRMADPNARLHWNGKDRHGREIILEELIRLLRRFDHVRIDVKKFEVQGDKVIADGLEIYTQGDKRIEVDTKIVLTTVNGKLKTLVWHID	0.642
DEREELLRRWTEEFLDVFHTGDPKETMDMVDPHARIIVIINGRTIEDHGWEHVKILLEQIRVHDFHLTDVRVVNGKVRIDGRYDGYVNGQRVDHHVIIINVVVDGRTHTLLIEIR	0.804
DEREELSKHITERFIRSVQTGDERVLKELIDPHARVIVDGRRFIGRHVWVKILKDLGIDHLEIEHVDLIGDKARIDSRVDVDGQEHNVKIHLEVINGRIHWIEERIK	1.04
DEREELVTRFWKFFVEASRTGDWRKLEDRADPHVRLHIDGVDLHGREEFAEEHRRHLKKFKNVKIHYEIHDMDIQGEKVHVDYRIRLDIGDKRTENIIRMDIVKIDGKWLIQEMHVD	0.89
DEREEMSRHMINLWNRHLETGDEDRISKLADPHVKVTNEDEEHVGRESAERFVRLMGFDHVHLHDIHIQGNKVISTVEIRIDGQTYQSDVVALKVDGKWKVKNVHIH	0.711
DEREEMVERFLTEWLRSLVTGDWEDSEKLFDPNVRIHVNGREFHGRHEAIKHFHELRIHKIELKSIDIQGNKAHVDVEVDGNVNGQNRIIKVNLFFKKVNGRWYFEQVEIH	1.24
DEREERNKQISELLWHALLTGNWEMLQHLADPHVRVDINGVDLHGRELLVKHLKKFGVDHSRHHDLEIQGEKLIIRGEVEVNGKRIDVEIRIEVIDGKVKHVEVHEN	1.24
DEREERSRHQMEWLWHLMITGDERLLEELADPHAKIEVGDKDFHGRHTLIEIIREHLQRVKNVRLEFREIEIQGDKIIIRGKLHIGDKEKDIIVIIVVVNGRLKSFKLEVH	1.19
DEREEWVERIERRLKEAIRTGDEHTLSKNMDPDAKLDINGVDLIGWERVIDFLRELRKELGVDKIHFRVESRRIIGDKAELDTRLHVNGKHHDTHVIIEKFNGVWSIHSLHVR	1.15
DEREHDLRRAVHIHRELMMTGDESNFLSYADPNTRLEVDGQEVVGREEVFKWITNVLSRHGVELKDIRVKTMDHQGNKLILHVEIRTRIGEKDTSVDFTLVVEKVNGRWVLHSLEIH	0.16
DEREHSVKLAFDKFLEDLHTGNEEMLDRFLDPHVRYHVGDKERHGRENFSRHVAKFLTEYGFKHLHLHMKDWEVQGDKATIEGHVNMHFNGRLIRHNTHLVIWKVNGRWLLESSEER	0.699
DEREKDVEHWFQRLIEAQITGDEEEFDELADPNVLIEINGRELHGRDDFHKYLKRVDHFEIQHFRHHHRHIFDGKVYFNGHSELHVTVGDKRFRYEDEIHHISLKIDGRWILKSVHFA	0.635
DEREKEAKTLHQEWFRALQTGNEKRLHELLDPHVRSDVNGVKLHGRHALIKFLVKWLRQIDHNERLEIHDIRFQGDKSEEDVRVVVHIDGRRIDYETHVHLDIYDGVIREVEIDIK	1.18
DEREKEALDIAREVLHNIMTGDWERLSQLLDPNTRFHEHWNGVHIDLHGRETVSHLLFRHVKHIRIEHVHLEDMVVIGEKAIIHSRRHIEIDGKHMTHHVLLYLLVIDGKIKDVRLHLE	0.869
DEREKEHETQIRLLIHAIQTGDESMFHKMMDPNVRIQVGDKHIHGREFFVEIFKKLIDRYPGIQLHIRIHSIRFQGEKVTIDERLEIIVGDKEMRFETEIFSQKVNGRWLIEFERIQ	0.579
DEREKELERIARELLKALYTGDEDILDKLVDPNVRLELDIDGKTNDIHGMENWFRFYETQWKKLGVDVYDIKDMDVWNGKITINSRVEVNGRYIDTRLILVVIDGRMHEIHIKEK	1.23
DEREKETERMLELFIKVLLTGNEHDLMKLADPHVKLDINGREIHGREHLEEMWRHLWIDDSKRREVRNVGEWSHIYGETDGTFNGKKVRDTVEIRLYIVNGKAHRIYIIER	0.655
DEREKFAEEIMEIFIRDVLTGDFDSLHKLIDPNTKIDLHIGDKIRPLHGREEFVKWVKEMRIHRWDITDMKVIGDKAHIDTTVDGEFNGRRTRFRQIINLDMVNGRLREIQITIG	2.2
DEREKFLEEMVEEWFRNWVTGDEDRFEELADPDVRFHIGDKDSHGREAFEELMKRMGFKYKHIELHDVHIQGDKSHIDGHVQGQVNGQERDSHVHLDLVVVNGRLRTMEVRFR	1.44
DEREKHAKDFFDILLHLLLTGDWDKIIRMADPDVKLEIGDKRFHGMEHISETWLKRFTRLGVDHQHFHLHTVKFINGVATIHGRQHLHVGDKTIDLEVIIYVEKIDGRWILNNIEVR	1.11
DEREKLAKKFLELFLHYIETGDEEVLRKLLDPSTRLEVNGRDNHGWKMFIWLLRELRIHRVHMELKVTDIQGDYVRNEGRLRSDVEYGDKRFETEYMVIIFLEKVDGRWHLHSFEVD	1.56
DEREKREEEVLKIIIEITETGDWRIFMELADPHVKLDIGDKDMHGMEEAERLWELMHKLLGINHIRFRHLRIQGDKVDMEFNVTIGDKQVDTRRHVITVDGRLHEVHEEFK	0.399
